Experimental data: article PMC11207964

Target: EGFRvIII (UniProt P00533)
Assay: BLI
Details: inverted dT at the end, BLI: association 200 s, dissociation 400 s, PBS + 0.05% Tween-20 (stated for NOTA-aptamer dissociation), protein loading at room temperature, cells: DPBS …

TGAGTAAGTGAGTACCGTTTGCGATTTGGAGAACTACGCAATCA [EGFRvIII aptamer (44 nt)]
Kd (P = 2Nap-dU (5-[N-(2-naphthylmethyl)carboxamide]-2'-deoxyuridine), written as T at 5,9,13,18,19,20,25,26,27,35,42, T1 printed as T): 0.87 nM

TGAGTAAGTGAGTACCGTTTGCGATTTGGAGAACTACGCAATCA [NOTA-EGFRvIII aptamer]
Kd (protein on Ni-NTA probe, 125-500 nM aptamer, PBS 0.05% Tween-20, 2Nap-dU written as T at 5,9,13,18,19,20,25,26,27,35,42, 5'-amine conjugated to p-SCN-Bn-NOTA): 2.05 nM
